Source: patent publication US20200165325A1

How the values were obtained:
[1] = target: HIV-1 Env of strain T255-34 (HIV-1)
[2] = target: HIV-1 Env of strain HIV-16845-2.22 (HIV-1)
[3] = target: HIV-1 Env of strain 6811.v7.c18 (HIV-1)
[4] = target: HIV-1 Env of strain 620345.c01 (HIV-1)
[5] = target: HIV-1 Env of strain Q461.e2 (HIV-1)
[6] = target: HIV-1 Env of strain Ce1176_A3 (HIV-1)
[7] = target: HIV-1 Env of strain 211-9 (HIV-1)
[8] = target: HIV-1 Env of strain ZM249M.PL1 (HIV-1)
[9] = target: HIV-1 Env of strain 89-F1_2_25 (HIV-1)
[10] = target: HIV-1 Env of strain THRO4156.18 (HIV-1)
[11] = target: HIV-1 Env of strain Du172.17 (HIV-1)
[12] = target: HIV-1 Env of strain ZM247v1(Rev-) (HIV-1)
[13] = target: HIV-1 Env of strain 6480.v4.c25 (HIV-1)
[14] = target: HIV-1 Env of strain R1166.c01 (HIV-1)
[15] = target: HIV-1 Env of strain CAP210.2.00.E8 (HIV-1)
[16] = target: HIV-1 Env of strain QH0692.42 (HIV-1)
[17] = target: HIV-1 Env of strain WEAU_d15_410_787 (HIV-1)
[18] = target: HIV-1 Env of strain Ce703010054_2A2 (HIV-1)
[19] = target: HIV-1 Env of strain AC10.0.29 (HIV-1)
[20] = target: HIV-1 Env of strain R2184.c04 (HIV-1)
[21] = target: HIV-1 Env of strain 3301.v1.c24 (HIV-1)
[22] = target: HIV-1 Env of strain 1006_11_C3_1601 (HIV-1)
[23] = target: HIV-1 Env of strain CNE21 (HIV-1)
[24] = target: HIV-1 Env of strain 1054_07_TC4_1499 (HIV-1)
[25] = target: HIV-1 Env of strain CNE20 (HIV-1)
[26] = target: HIV-1 Env of strain ZM53M.PB12 (HIV-1)
[27] = target: HIV-1 Env of strain 231965.c01 (HIV-1)
[28] = target: HIV-1 Env of strain ZM233M.PB6 (HIV-1)
[29] = target: HIV-1 Env of strain 0330.v4.c3 (HIV-1)
[30] = target: HIV-1 Env of strain P1981_C5_3 (HIV-1)
[31] = target: HIV-1 Env of strain 6540.v4.c1 (HIV-1)
[32] = target: HIV-1 Env of strain RHPA4259.7 (HIV-1)
[33] = target: HIV-1 Env of strain 0815.v3.c3 (HIV-1)
[34] = target: HIV-1 Env of strain Q23.17 (HIV-1)
[35] = target: HIV-1 Env of strain 3415.v1.c1 (HIV-1)
[36] = target: HIV-1 Env of strain Du422.1 (HIV-1)
[37] = target: HIV-1 Env of strain Ce0393_C3 (HIV-1)
[38] = target: HIV-1 Env of strain 6535.3 (HIV-1)
[39] = target: HIV-1 Env of strain T257-31 (HIV-1)
[40] = target: HIV-1 Env of strain P0402_c2_11 (HIV-1)
[41] = target: HIV-1 Env of strain 928-28 (HIV-1)
[42] = target: HIV-1 Env of strain TRO.11 (HIV-1)
[43] = target: HIV-1 Env of strain 3103.v3.c10 (HIV-1)
[44] = target: HIV-1 Env of strain SC422661.8 (HIV-1)
[45] = target: HIV-1 Env of strain ZM135M.PL10a (HIV-1)
[46] = target: HIV-1 Env of strain 703357.C02 (HIV-1)
[47] = target: HIV-1 Env of strain CAP45.2.00.G3 (HIV-1)
[48] = target: HIV-1 Env of strain T278-50 (HIV-1)
[49] = target: HIV-1 Env of strain REJO4541.67 (HIV-1)
[50] = target: HIV-1 Env of strain Q259.d2.17 (HIV-1)
[51] = target: HIV-1 Env of strain Q769.d22 (HIV-1)
[52] = target: HIV-1 Env of strain Ce2060_G9 (HIV-1)
[53] = target: HIV-1 Env of strain 62357_14_D3_4589 (HIV-1)
[54] = target: HIV-1 Env of strain C3347.c11 (HIV-1)
[55] = target: HIV-1 Env of strain 3016.v5.c45 (HIV-1)
[56] = target: HIV-1 Env of strain 3718.v3.c11 (HIV-1)
[57] = target: HIV-1 Env of strain T250-4 (HIV-1)

NIH45-46 G54W IgG (antibody) was tested, and the In vitro neutralization IC80 [1] was 0.099 µg/mL, the In vitro neutralization IC80 [2] was 2.1 µg/mL and the In vitro neutralization IC80 [3] was 0.033 µg/mL. For the same substance, the In vitro neutralization IC80 [4] was > 50 µg/mL, the In vitro neutralization IC80 [5] was 0.091 µg/mL and the In vitro neutralization IC80 [6] was 0.45 µg/mL. For the same substance, the In vitro neutralization IC80 [7] was > 50 µg/mL, the In vitro neutralization IC80 [8] was 0.007 µg/mL and the In vitro neutralization IC80 [9] was > 50 µg/mL. For the same substance, the In vitro neutralization IC80 [10] was 1.81 µg/mL, the In vitro neutralization IC80 [11] was 42.9 µg/mL and the In vitro neutralization IC80 [12] was 2.6 µg/mL. For the same substance, the In vitro neutralization IC80 [13] was 0.021 µg/mL, the In vitro neutralization IC80 [14] was 0.51 µg/mL and the In vitro neutralization IC80 [15] was > 50 µg/mL. The In vitro neutralization IC80 [16] was 1.12 µg/mL, the In vitro neutralization IC80 [17] was 0.003 µg/mL and the In vitro neutralization IC80 [18] was 0.077 µg/mL. For the same substance, the In vitro neutralization IC80 [19] was 0.63 µg/mL, the In vitro neutralization IC80 [20] was 0.036 µg/mL and the In vitro neutralization IC80 [21] was 0.004 µg/mL. For the same substance, the In vitro neutralization IC80 [22] was 0.008 µg/mL, the In vitro neutralization IC80 [23] was 0.16 µg/mL and the In vitro neutralization IC80 [24] was 0.165 µg/mL. The In vitro neutralization IC80 [25] was 0.48 µg/mL, the In vitro neutralization IC80 [26] was 0.16 µg/mL and the In vitro neutralization IC80 [27] was 0.035 µg/mL. The In vitro neutralization IC80 [28] was 0.11 µg/mL, the In vitro neutralization IC80 [29] was 0.11 µg/mL and the In vitro neutralization IC80 [30] was 0.07 µg/mL. For the same substance, the In vitro neutralization IC80 [31] was > 50 µg/mL, the In vitro neutralization IC80 [32] was 0.007 µg/mL and the In vitro neutralization IC80 [33] was 0.003 µg/mL. For the same substance, the In vitro neutralization IC80 [34] was 0.03 µg/mL, the In vitro neutralization IC80 [35] was 0.023 µg/mL and the In vitro neutralization IC80 [36] was > 50 µg/mL. It also gave an In vitro neutralization IC80 [37] of 0.089 µg/mL, an In vitro neutralization IC80 [38] of 0.13 µg/mL and an In vitro neutralization IC80 [39] of 0.45 µg/mL. For the same substance, the In vitro neutralization IC80 [40] was 0.023 µg/mL, the In vitro neutralization IC80 [41] was 0.25 µg/mL and the In vitro neutralization IC80 [42] was 0.13 µg/mL. The In vitro neutralization IC80 [43] was 0.56 µg/mL, the In vitro neutralization IC80 [44] was 0.07 µg/mL and the In vitro neutralization IC80 [45] was 0.16 µg/mL. For the same substance, the In vitro neutralization IC80 [46] was 17.6 µg/mL, the In vitro neutralization IC80 [47] was > 50 µg/mL and the In vitro neutralization IC80 [48] was > 50 µg/mL. The In vitro neutralization IC80 [49] was 0.013 µg/mL, the In vitro neutralization IC80 [50] was 0.014 µg/mL and the In vitro neutralization IC80 [51] was 0.009 µg/mL. For the same substance, the In vitro neutralization IC80 [52] was 0.042 µg/mL, the In vitro neutralization IC80 [53] was 0.07 µg/mL and the In vitro neutralization IC80 [54] was 0.028 µg/mL. For the same substance, the In vitro neutralization IC80 [55] was 15.4 µg/mL, the In vitro neutralization IC80 [56] was 0.04 µg/mL and the In vitro neutralization IC80 [57] was 44.9 µg/mL.

Substance NIH45-46 G54Y IgG (antibody) has an In vitro neutralization IC80 [1] of 0.174 µg/mL, an In vitro neutralization IC80 [2] of 2.75 µg/mL and an In vitro neutralization IC80 [3] of 0.059 µg/mL. For the same substance, the In vitro neutralization IC80 [4] was > 50 µg/mL, the In vitro neutralization IC80 [5] was 0.103 µg/mL and the In vitro neutralization IC80 [6] was 0.58 µg/mL. The In vitro neutralization IC80 [7] was > 50 µg/mL, the In vitro neutralization IC80 [8] was 0.011 µg/mL and the In vitro neutralization IC80 [9] was > 50 µg/mL. The In vitro neutralization IC80 [10] was 2.14 µg/mL, the In vitro neutralization IC80 [11] was > 50 µg/mL and the In vitro neutralization IC80 [12] was 3.57 µg/mL. For the same substance, the In vitro neutralization IC80 [13] was 0.051 µg/mL, the In vitro neutralization IC80 [14] was 0.84 µg/mL and the In vitro neutralization IC80 [15] was > 50 µg/mL. It also gave an In vitro neutralization IC80 [16] of 1.5 µg/mL, an In vitro neutralization IC80 [17] of 0.008 µg/mL and an In vitro neutralization IC80 [18] of 0.07 µg/mL. The In vitro neutralization IC80 [19] was 0.9 µg/mL, the In vitro neutralization IC80 [20] was 0.045 µg/mL and the In vitro neutralization IC80 [21] was 0.014 µg/mL. For the same substance, the In vitro neutralization IC80 [22] was 0.021 µg/mL, the In vitro neutralization IC80 [23] was 0.29 µg/mL and the In vitro neutralization IC80 [24] was 0.236 µg/mL. The In vitro neutralization IC80 [25] was 2.4 µg/mL, the In vitro neutralization IC80 [26] was 0.22 µg/mL and the In vitro neutralization IC80 [27] was 0.054 µg/mL. It also gave an In vitro neutralization IC80 [28] of 0.78 µg/mL, an In vitro neutralization IC80 [29] of 0.09 µg/mL and an In vitro neutralization IC80 [30] of 0.09 µg/mL. For the same substance, the In vitro neutralization IC80 [31] was > 50 µg/mL, the In vitro neutralization IC80 [32] was 0.02 µg/mL and the In vitro neutralization IC80 [33] was 0.015 µg/mL. The In vitro neutralization IC80 [34] was 0.06 µg/mL, the In vitro neutralization IC80 [35] was 0.037 µg/mL and the In vitro neutralization IC80 [36] was > 50 µg/mL. The In vitro neutralization IC80 [37] was 0.134 µg/mL, the In vitro neutralization IC80 [38] was 0.24 µg/mL and the In vitro neutralization IC80 [39] was 0.67 µg/mL. For the same substance, the In vitro neutralization IC80 [40] was 0.049 µg/mL, the In vitro neutralization IC80 [41] was 0.33 µg/mL and the In vitro neutralization IC80 [42] was 0.22 µg/mL. For the same substance, the In vitro neutralization IC80 [43] was 0.81 µg/mL, the In vitro neutralization IC80 [44] was 0.09 µg/mL and the In vitro neutralization IC80 [45] was 0.3 µg/mL. The In vitro neutralization IC80 [46] was 30.6 µg/mL, the In vitro neutralization IC80 [47] was > 50 µg/mL and the In vitro neutralization IC80 [48] was > 50 µg/mL. It also gave an In vitro neutralization IC80 [49] of 0.02 µg/mL, an In vitro neutralization IC80 [50] of 0.034 µg/mL and an In vitro neutralization IC80 [51] of 0.024 µg/mL. For the same substance, the In vitro neutralization IC80 [52] was 0.068 µg/mL, the In vitro neutralization IC80 [53] was 0.09 µg/mL and the In vitro neutralization IC80 [54] was 0.052 µg/mL. The In vitro neutralization IC80 [55] was > 50 µg/mL, the In vitro neutralization IC80 [56] was 3.85 µg/mL and the In vitro neutralization IC80 [57] was > 50 µg/mL.
